Literature values, collected in article PMC9008539.

Molecular target: PfRh5 (Plasmodium falciparum) (UniProt Q8IFM5)
Sequence (Q8IFM5 25-526): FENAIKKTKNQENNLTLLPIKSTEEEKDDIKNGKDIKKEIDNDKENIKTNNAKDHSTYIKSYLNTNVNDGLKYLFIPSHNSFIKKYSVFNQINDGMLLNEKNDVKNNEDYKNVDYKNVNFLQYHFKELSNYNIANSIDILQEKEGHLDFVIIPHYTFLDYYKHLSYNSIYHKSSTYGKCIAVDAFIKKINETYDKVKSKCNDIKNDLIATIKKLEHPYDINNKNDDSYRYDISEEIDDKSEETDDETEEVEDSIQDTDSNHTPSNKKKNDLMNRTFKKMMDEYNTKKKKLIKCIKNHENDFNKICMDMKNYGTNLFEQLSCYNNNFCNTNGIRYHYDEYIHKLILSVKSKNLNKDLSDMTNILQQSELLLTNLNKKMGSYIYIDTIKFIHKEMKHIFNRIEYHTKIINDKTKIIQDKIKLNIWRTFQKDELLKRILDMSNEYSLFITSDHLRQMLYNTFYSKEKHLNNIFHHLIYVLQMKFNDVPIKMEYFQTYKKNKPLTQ

For PfRipr (from UniProt O97302), the Kd is given as 0.48 nM.
